Measurements published in article PMC7427792, “CryoEM structure of the low-complexity domain of hnRNPA2 and its conversion to pathogenic amyloid” (Nature Communications, 2020).

How the values were obtained:
[1] = molecular target: the molecule itself; assay: crystal structure; hanging-drop vapour diffusion; segment 9.69 mg ml^-1 in water with 31 mM lithium hydroxide; reservoir 0.15 M ammonium acetate, 35% MPD, 0.1 M Bis-Tris pH 5.5
[2] = molecular target: the molecule itself; assay: X-ray fibre diffraction; mC-hnRNPA2-LCD hydrogel (~60 mg ml^-1, 4 °C) air-dried between two capillary glass rods; 100 K

B1: hnRNPA2 mutant core segment GNYNVF (286-291, D290V) (peptide)
peptide: GNYNVF
notes: hexamer segment 286-291 of human hnRNPA2 LCD with the disease variant D290V (multisystem proteinopathy); numbers count on the 341-residue hnRNPA2 (isoform A2); also called mutant segment; disease-causing mutant core segment
binding result [1]: binds

B2: mCherry-hnRNPA2-LCD fusion protein (domain or fragment, human, UniProt P22626-2 181-341, looked up)
chain: MQEVQSSRSGRGGNFGFGDSRGGGGNFGPGPGSNFRGGSDGYGSGRGFGDGYNGYGGGPGGGNFGGSPGYGGGRGGYGGGGPGYGNQGGGYGGGYDNYGGGNYGSGNYNDFGNYNQQPSNYGPMKSGNFGGSRNMGGPYGGGNYGPGGSGGSGGYGGRSRY
notes: hnRNPA2 C-terminal low-complexity domain (LCD), human, residues 181-341 of the 341-residue protein (161 residues); printed length 341 = isoform A2 of HNRNPA2B1; Only Gly263-Tyr319 is ordered in the fibril core; also called mC-hnRNPA2-LCD; mCh-hnRNPA2-LCD; source: E. coli BL21(DE3), purified (HisTrap HP column, in 2 M guanidine HCl), dialysed and concentrated; not shown: mCherry, N-terminal, kept
binding result [2]: binds
